T1: MPDZ_12, O75970
T1 sequence (O75970 1857-1958, limits assumed, looked up): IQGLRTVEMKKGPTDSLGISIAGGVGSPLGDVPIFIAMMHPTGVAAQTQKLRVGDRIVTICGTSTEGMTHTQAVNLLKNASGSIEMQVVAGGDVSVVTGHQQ

T2: LRRC7, Q96NW7
T2 sequence (Q96NW7 1440-1537, limits assumed, looked up): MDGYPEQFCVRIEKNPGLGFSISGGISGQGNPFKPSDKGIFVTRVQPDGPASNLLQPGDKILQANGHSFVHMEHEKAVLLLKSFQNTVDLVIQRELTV

T3: TJP3_3, O95049
T3 sequence (O95049 375-456, limits assumed, looked up): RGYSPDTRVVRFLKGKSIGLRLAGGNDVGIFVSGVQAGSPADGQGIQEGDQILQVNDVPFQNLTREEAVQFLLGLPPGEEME

T4: RHPN1, Q8TCX5
T4 sequence (Q8TCX5 508-602, limits assumed, looked up): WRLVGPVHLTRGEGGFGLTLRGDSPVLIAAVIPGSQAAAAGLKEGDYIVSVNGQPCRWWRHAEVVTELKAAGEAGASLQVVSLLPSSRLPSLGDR

T5: LIN7C, Q9NUP9
T5 sequence (Q9NUP9 88-185, limits assumed, looked up): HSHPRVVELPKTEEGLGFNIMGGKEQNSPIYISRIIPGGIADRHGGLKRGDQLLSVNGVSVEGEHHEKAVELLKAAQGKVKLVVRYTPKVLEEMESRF

T6: SYNJ2BP, P57105
T6 sequence (P57105 8-110, limits assumed, looked up): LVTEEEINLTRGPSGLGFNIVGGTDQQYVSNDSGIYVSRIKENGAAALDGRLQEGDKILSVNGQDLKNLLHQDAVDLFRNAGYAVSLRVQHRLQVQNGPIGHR

T7: DFNB31_1, Q9P202
T7 sequence (Q9P202 135-233, limits assumed, looked up): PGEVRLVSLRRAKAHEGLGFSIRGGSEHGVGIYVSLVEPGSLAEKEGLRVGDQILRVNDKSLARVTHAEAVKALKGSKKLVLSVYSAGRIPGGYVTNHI

T8: SHANK1, Q9Y566
T8 sequence (Q9Y566 658-767, limits assumed, looked up): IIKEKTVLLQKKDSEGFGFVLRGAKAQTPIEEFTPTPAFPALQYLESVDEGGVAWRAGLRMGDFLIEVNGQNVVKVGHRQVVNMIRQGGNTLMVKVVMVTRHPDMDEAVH

T9: SNTG2, Q9NY99
T9 sequence (Q9NY99 68-166, limits assumed, looked up): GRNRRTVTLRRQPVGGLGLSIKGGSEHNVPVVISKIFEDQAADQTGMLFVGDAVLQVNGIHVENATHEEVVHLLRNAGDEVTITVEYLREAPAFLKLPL


target: HTRA2, O43464; experiment: holdup assay; parameters: key: below the threshold = too weak to quantify, mostly under pKd 3.1 to 4; conditions: plain residues with an end cap or a label only (N-terminal biotin on a linker: ado-ado)
Sequence (O43464 355-458): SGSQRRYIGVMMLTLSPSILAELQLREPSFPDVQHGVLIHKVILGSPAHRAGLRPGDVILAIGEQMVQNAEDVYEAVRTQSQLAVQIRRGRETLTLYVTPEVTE

Binder | pKd
DFLSTFHIRI [CIB2, O75838] | 3.5
EIPAQSPTCV [FZD10, Q9ULW2] | 3.76

target: DLG1_2, Q12959; experiment: holdup assay; parameters: key: below the threshold = too weak to quantify, mostly under pKd 3.1 to 4; conditions: plain residues with an end cap or a label only (N-terminal biotin on a linker: ado-ado)
Sequence (Q12959 314-412): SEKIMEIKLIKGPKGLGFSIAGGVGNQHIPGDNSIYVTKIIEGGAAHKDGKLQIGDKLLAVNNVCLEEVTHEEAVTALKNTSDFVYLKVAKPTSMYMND

Binder | pKd
DFLSTFHIRI [CIB2, O75838] | below the threshold
EIPAQSPTCV [FZD10, Q9ULW2] | 3.86

target: NHERF4_1, Q86UT5-2; experiment: holdup assay; parameters: key: below the threshold = too weak to quantify, mostly under pKd 3.1 to 4; conditions: plain residues with an end cap or a label only (N-terminal biotin on a linker: ado-ado)
Sequence (Q86UT5 other isoform, or with tags, fused parts or gaps): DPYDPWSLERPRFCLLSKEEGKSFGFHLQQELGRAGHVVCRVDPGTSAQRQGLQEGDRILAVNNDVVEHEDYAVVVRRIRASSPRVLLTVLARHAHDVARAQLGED

Binder | pKd
DFLSTFHIRI [CIB2, O75838] | below the threshold
EIPAQSPTCV [FZD10, Q9ULW2] | 3.91

target: PICK1, Q9NRD5; experiment: holdup assay; parameters: key: below the threshold = too weak to quantify, mostly under pKd 3.1 to 4; conditions: plain residues with an end cap or a label only (N-terminal biotin on a linker: ado-ado)
Sequence (Q9NRD5 17-115): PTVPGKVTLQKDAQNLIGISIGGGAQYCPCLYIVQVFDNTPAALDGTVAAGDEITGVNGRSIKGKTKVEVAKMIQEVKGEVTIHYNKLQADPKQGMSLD

Binder | pKd
DFLSTFHIRI [CIB2, O75838] | below the threshold
EIPAQSPTCV [FZD10, Q9ULW2] | 3.51

target: T1, MPDZ_12, O75970; experiment: holdup assay; parameters: key: below the threshold = too weak to quantify, mostly under pKd 3.1 to 4; conditions: plain residues with an end cap or a label only (N-terminal biotin on a linker: ado-ado)

Binder | pKd
DFLSTFHIRI [CIB2, O75838] | below the threshold
EIPAQSPTCV [FZD10, Q9ULW2] | below the threshold

target: T2, LRRC7, Q96NW7; experiment: holdup assay; parameters: key: below the threshold = too weak to quantify, mostly under pKd 3.1 to 4; conditions: plain residues with an end cap or a label only (N-terminal biotin on a linker: ado-ado)

Binder | pKd
DFLSTFHIRI [CIB2, O75838] | below the threshold
EIPAQSPTCV [FZD10, Q9ULW2] | below the threshold

target: DLG4_2, P78352; experiment: holdup assay; parameters: key: below the threshold = too weak to quantify, mostly under pKd 3.1 to 4; conditions: plain residues with an end cap or a label only (N-terminal biotin on a linker: ado-ado)
Sequence (P78352 155-259): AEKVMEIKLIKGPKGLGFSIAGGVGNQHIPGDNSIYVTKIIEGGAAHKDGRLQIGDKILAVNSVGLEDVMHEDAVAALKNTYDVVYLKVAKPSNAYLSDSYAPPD

Binder | pKd
DFLSTFHIRI [CIB2, O75838] | below the threshold
EIPAQSPTCV [FZD10, Q9ULW2] | 4.11

target: SCRIB_2, Q14160; experiment: holdup assay; parameters: key: below the threshold = too weak to quantify, mostly under pKd 3.1 to 4; conditions: plain residues with an end cap or a label only (N-terminal biotin on a linker: ado-ado)
Sequence (Q14160 857-960): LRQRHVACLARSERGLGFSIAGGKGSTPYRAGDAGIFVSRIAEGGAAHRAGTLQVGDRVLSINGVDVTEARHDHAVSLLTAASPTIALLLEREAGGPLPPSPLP

Binder | pKd
DFLSTFHIRI [CIB2, O75838] | below the threshold
EIPAQSPTCV [FZD10, Q9ULW2] | below the threshold

target: FRMPD2_3, Q68DX3; experiment: holdup assay; parameters: key: below the threshold = too weak to quantify, mostly under pKd 3.1 to 4; conditions: plain residues with an end cap or a label only (N-terminal biotin on a linker: ado-ado)
Sequence (Q68DX3 1073-1166): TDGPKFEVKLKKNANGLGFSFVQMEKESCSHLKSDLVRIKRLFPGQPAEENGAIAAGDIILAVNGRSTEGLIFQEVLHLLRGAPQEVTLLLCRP

Binder | pKd
DFLSTFHIRI [CIB2, O75838] | below the threshold
EIPAQSPTCV [FZD10, Q9ULW2] | 3.77

target: T3, TJP3_3, O95049; experiment: holdup assay; parameters: key: below the threshold = too weak to quantify, mostly under pKd 3.1 to 4; conditions: plain residues with an end cap or a label only (N-terminal biotin on a linker: ado-ado)

Binder | pKd
DFLSTFHIRI [CIB2, O75838] | below the threshold
EIPAQSPTCV [FZD10, Q9ULW2] | 3.78

target: T4, RHPN1, Q8TCX5; experiment: holdup assay; parameters: key: below the threshold = too weak to quantify, mostly under pKd 3.1 to 4; conditions: plain residues with an end cap or a label only (N-terminal biotin on a linker: ado-ado)

Binder | pKd
DFLSTFHIRI [CIB2, O75838] | below the threshold
EIPAQSPTCV [FZD10, Q9ULW2] | below the threshold

target: Inadl_8, Q8NI35; experiment: holdup assay; parameters: key: below the threshold = too weak to quantify, mostly under pKd 3.1 to 4; conditions: plain residues with an end cap or a label only (N-terminal biotin on a linker: ado-ado)
Sequence (Q8NI35 1425-1530): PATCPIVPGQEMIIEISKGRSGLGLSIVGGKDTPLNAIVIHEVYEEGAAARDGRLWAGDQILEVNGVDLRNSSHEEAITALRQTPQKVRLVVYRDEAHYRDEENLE

Binder | pKd
DFLSTFHIRI [CIB2, O75838] | below the threshold
EIPAQSPTCV [FZD10, Q9ULW2] | 4.35

target: T5, LIN7C, Q9NUP9; experiment: holdup assay; parameters: key: below the threshold = too weak to quantify, mostly under pKd 3.1 to 4; conditions: plain residues with an end cap or a label only (N-terminal biotin on a linker: ado-ado)

Binder | pKd
DFLSTFHIRI [CIB2, O75838] | below the threshold
EIPAQSPTCV [FZD10, Q9ULW2] | below the threshold

target: FRMPD4, Q14CM0; experiment: holdup assay; parameters: key: below the threshold = too weak to quantify, mostly under pKd 3.1 to 4; conditions: plain residues with an end cap or a label only (N-terminal biotin on a linker: ado-ado)
Sequence (Q14CM0 67-160): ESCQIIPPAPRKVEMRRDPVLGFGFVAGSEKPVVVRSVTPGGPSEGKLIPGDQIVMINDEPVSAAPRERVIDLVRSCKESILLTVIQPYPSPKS

Binder | pKd
DFLSTFHIRI [CIB2, O75838] | below the threshold
EIPAQSPTCV [FZD10, Q9ULW2] | 3.75

target: Inadl_5, Q8NI35; experiment: holdup assay; parameters: key: below the threshold = too weak to quantify, mostly under pKd 3.1 to 4; conditions: plain residues with an end cap or a label only (N-terminal biotin on a linker: ado-ado)
Sequence (Q8NI35 673-780): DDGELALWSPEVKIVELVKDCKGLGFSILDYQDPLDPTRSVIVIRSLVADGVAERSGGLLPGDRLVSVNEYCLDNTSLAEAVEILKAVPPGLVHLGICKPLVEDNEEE

Binder | pKd
DFLSTFHIRI [CIB2, O75838] | below the threshold
EIPAQSPTCV [FZD10, Q9ULW2] | below the threshold

target: FRMPD2_1, Q68DX3; experiment: holdup assay; parameters: key: below the threshold = too weak to quantify, mostly under pKd 3.1 to 4; conditions: plain residues with an end cap or a label only (N-terminal biotin on a linker: ado-ado)
Sequence (Q68DX3 770-861): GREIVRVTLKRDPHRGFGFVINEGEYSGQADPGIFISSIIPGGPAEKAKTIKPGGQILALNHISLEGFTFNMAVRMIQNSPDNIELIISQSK

Binder | pKd
DFLSTFHIRI [CIB2, O75838] | below the threshold
EIPAQSPTCV [FZD10, Q9ULW2] | 3.92

target: IL16_3, Q14005; experiment: holdup assay; parameters: key: below the threshold = too weak to quantify, mostly under pKd 3.1 to 4; conditions: plain residues with an end cap or a label only (N-terminal biotin on a linker: ado-ado)
Sequence (Q14005 1107-1207): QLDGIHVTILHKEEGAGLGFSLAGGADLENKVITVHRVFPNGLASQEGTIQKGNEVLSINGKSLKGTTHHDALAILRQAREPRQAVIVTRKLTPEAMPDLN

Binder | pKd
DFLSTFHIRI [CIB2, O75838] | below the threshold
EIPAQSPTCV [FZD10, Q9ULW2] | below the threshold

target: T6, SYNJ2BP, P57105; experiment: holdup assay; parameters: key: below the threshold = too weak to quantify, mostly under pKd 3.1 to 4; conditions: plain residues with an end cap or a label only (N-terminal biotin on a linker: ado-ado)

Binder | pKd
DFLSTFHIRI [CIB2, O75838] | below the threshold
EIPAQSPTCV [FZD10, Q9ULW2] | 4.36

target: MAGI3_2, Q5TCQ9; experiment: holdup assay; parameters: key: below the threshold = too weak to quantify, mostly under pKd 3.1 to 4; conditions: plain residues with an end cap or a label only (N-terminal biotin on a linker: ado-ado)
Sequence (Q5TCQ9 398-503): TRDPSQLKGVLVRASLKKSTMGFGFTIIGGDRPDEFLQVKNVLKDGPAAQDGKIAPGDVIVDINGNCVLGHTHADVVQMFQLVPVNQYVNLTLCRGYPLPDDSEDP

Binder | pKd
DFLSTFHIRI [CIB2, O75838] | 4.3
EIPAQSPTCV [FZD10, Q9ULW2] | 4.12

target: T7, DFNB31_1, Q9P202; experiment: holdup assay; parameters: key: below the threshold = too weak to quantify, mostly under pKd 3.1 to 4; conditions: plain residues with an end cap or a label only (N-terminal biotin on a linker: ado-ado)

Binder | pKd
DFLSTFHIRI [CIB2, O75838] | 3.55
EIPAQSPTCV [FZD10, Q9ULW2] | 3.67

target: PDZRN4_1, Q6ZMN7; experiment: holdup assay; parameters: key: below the threshold = too weak to quantify, mostly under pKd 3.1 to 4; conditions: plain residues with an end cap or a label only (N-terminal biotin on a linker: ado-ado)
Sequence (Q6ZMN7 213-318): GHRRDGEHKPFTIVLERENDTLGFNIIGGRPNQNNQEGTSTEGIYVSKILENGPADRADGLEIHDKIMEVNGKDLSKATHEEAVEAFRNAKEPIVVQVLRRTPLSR

Binder | pKd
DFLSTFHIRI [CIB2, O75838] | below the threshold
EIPAQSPTCV [FZD10, Q9ULW2] | 3.63

target: LNX1_1, Q8TBB1; experiment: holdup assay; parameters: key: below the threshold = too weak to quantify, mostly under pKd 3.1 to 4; conditions: plain residues with an end cap or a label only (N-terminal biotin on a linker: ado-ado)
Sequence (Q8TBB1 261-371): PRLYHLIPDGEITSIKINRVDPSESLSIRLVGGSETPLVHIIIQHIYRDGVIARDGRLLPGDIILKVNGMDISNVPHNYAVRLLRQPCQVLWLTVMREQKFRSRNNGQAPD

Binder | pKd
DFLSTFHIRI [CIB2, O75838] | below the threshold
EIPAQSPTCV [FZD10, Q9ULW2] | below the threshold

target: T8, SHANK1, Q9Y566; experiment: holdup assay; parameters: key: below the threshold = too weak to quantify, mostly under pKd 3.1 to 4; conditions: plain residues with an end cap or a label only (N-terminal biotin on a linker: ado-ado)

Binder | pKd
DFLSTFHIRI [CIB2, O75838] | below the threshold
EIPAQSPTCV [FZD10, Q9ULW2] | 3.62

target: MAGI1_1, Q96QZ7; experiment: holdup assay; parameters: key: below the threshold = too weak to quantify, mostly under pKd 3.1 to 4; conditions: plain residues with an end cap or a label only (N-terminal biotin on a linker: ado-ado)
Sequence (Q96QZ7 1-106): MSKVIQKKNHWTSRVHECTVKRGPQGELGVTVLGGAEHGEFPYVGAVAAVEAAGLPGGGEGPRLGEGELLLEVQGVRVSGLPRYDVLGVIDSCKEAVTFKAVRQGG

Binder | pKd
DFLSTFHIRI [CIB2, O75838] | below the threshold
EIPAQSPTCV [FZD10, Q9ULW2] | 3.79

target: TJP2_1, Q9UDY2; experiment: holdup assay; parameters: key: below the threshold = too weak to quantify, mostly under pKd 3.1 to 4; conditions: plain residues with an end cap or a label only (N-terminal biotin on a linker: ado-ado)
Sequence (Q9UDY2 24-128): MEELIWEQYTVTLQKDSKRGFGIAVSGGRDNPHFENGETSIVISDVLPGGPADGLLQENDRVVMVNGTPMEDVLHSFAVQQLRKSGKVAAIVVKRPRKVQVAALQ

Binder | pKd
DFLSTFHIRI [CIB2, O75838] | below the threshold
EIPAQSPTCV [FZD10, Q9ULW2] | 3.82

target: Inadl_10, Q8NI35; experiment: holdup assay; parameters: key: below the threshold = too weak to quantify, mostly under pKd 3.1 to 4; conditions: plain residues with an end cap or a label only (N-terminal biotin on a linker: ado-ado)
Sequence (Q8NI35 1673-1763): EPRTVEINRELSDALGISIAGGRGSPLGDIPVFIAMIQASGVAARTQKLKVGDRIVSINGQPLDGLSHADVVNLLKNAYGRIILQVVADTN

Binder | pKd
DFLSTFHIRI [CIB2, O75838] | below the threshold
EIPAQSPTCV [FZD10, Q9ULW2] | 3.55

target: T9, SNTG2, Q9NY99; experiment: holdup assay; parameters: key: below the threshold = too weak to quantify, mostly under pKd 3.1 to 4; conditions: plain residues with an end cap or a label only (N-terminal biotin on a linker: ado-ado)

Binder | pKd
DFLSTFHIRI [CIB2, O75838] | 3.62
EIPAQSPTCV [FZD10, Q9ULW2] | 3.85

target: FRMPD3, Q5JV73; experiment: holdup assay; parameters: key: below the threshold = too weak to quantify, mostly under pKd 3.1 to 4; conditions: plain residues with an end cap or a label only (N-terminal biotin on a linker: ado-ado)
Sequence (Q5JV73 12-100): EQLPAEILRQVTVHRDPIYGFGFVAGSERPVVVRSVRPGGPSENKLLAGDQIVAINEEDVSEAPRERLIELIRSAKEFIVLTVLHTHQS

Binder | pKd
DFLSTFHIRI [CIB2, O75838] | below the threshold
EIPAQSPTCV [FZD10, Q9ULW2] | 3.49

— article PMC9482650, “Quantitative fragmentomics allow affinity mapping of interactomes” (Nature Communications, 2022)
